Data: patent publication US20240293316A1, “ENZYME-RESPONSIVE POLYMER PEPTIDE AMPHIPHILES FOR TARGETED DRUG DELIVERY TO TREAT LOCAL AND SYSTEMIC INFLAMMATION” (Ramot at Tel-Aviv University Ltd., priority 2021, published 2024)
Square brackets hold non-standard residues; d marks the D form. Ends that are not written are not given here. * marks the point of attachment. NorAHA = (N-hexanoic acid)-5-norbornene-exo-2,3-dicarboximide, O=C1[C@@H]2[C@H](C(=O)N1CCCCCC(=O)*)[C@H]1C=C[C@@H]2C1

Legend:
[1] = Properties of the designed random peptide (water solubility, net charge); format: physicochemical
Description: A new random peptide sequence was designed by replacing the MMP recognizable amino acid sequence PLGLAG (SEQ ID NO: 16) into GSGSGS (SEQ ID NO: 20).
Following the preparation of peptide functionalized norbornene monomers, an MMP-9 cleavage assay was performed setup, as described in the Materials and Methods section hereinabove.

[2] = tested on: diabetic rats following collagen membrane implantation; assay: Diabetic rats with implanted collagen membrane, fluorescence imaging of DEX-containing nanoparticles; format: in vivo, Female Sprague Dawley rats; conditions: for order of in-vivo fluorescence intensity: 7- and 14-days post injection
Description: (§1) “Diabetic induction” model [Zoabi et al. 2020, supra]: Type 1-like diabetes was induced through a single intraperitoneal injection of streptozotocin, and the induction of hyperglycemia is confirmed by a blood glucose level that is higher than 270 mg/dL at 7 days post injection;
(§2) “Collagen membrane implantation” under scalp of diabetic rats, wherein a para-sagital excisional wound, 10 mm in length, was created in the center of the skin of the calvaria, the periosteum was separated from the skull bone, and a collagen membrane was implanted beneath [Eliezer M, Nemcovsky C, Romanos G, Kozlovsky A, Tal H, Kolerman R, Weinreb M, Moses O. Opposing effects of diabetes and tetracycline on the degradation of collagen membranes in rats. J Periodontol. 2013 April; 84(4):529-34; Tal H, Weinreb M, Shely A, Nemcovsky C E, Moses O. Tetracycline impregnation affects degradation of porcine collagen matrix in healthy and diabetic rats. Clin Oral Investig. 2016 July; 20(6):1237-42; Moses O, Eliezer M, Nemcovsky C, Tal H, Weinreb M. Accelerated degradation of collagen membranes in diabetic rats is associated with increased infiltration of macrophages and blood vessels. Clin Oral Investig. 2016 September; 20(7):1589-96; Eliezer M, Sculean A, Miron R J, Nemcovsky C, Weinberg E, Weinreb M, Zoabi H, Bosshardt D D, Fujioka-Kobayashi M, Moses O. Hyaluronic acid slows down collagen membrane degradation in uncontrolled diabetic rats. J Periodontal Res. 2019 December; 54(6):644-652; and Zoabi H, Nemcovsky C E, Bender O, Moses O, Weinreb M. Accelerated degradation of collagen membranes in type 1 diabetic rats is associated with increased expression and production of several inflammatory molecules. J Periodontol. 2020 October; 91(10):1348-13561.
Type 1-like diabetes was induced as described in the Materials and Methods section, and the induction of hyperglycemia was confirmed by a blood glucose level higher than 270 mg/dL 7 days post injection (see, FIGS. 13A and 13B).
(§3) At day 8, the rats were randomly divided into five groups to receive one single dosage of: i) NPL, ii) NPD, iii) NPR, iv) free DEX, or v) no injection, through a subcutaneous injection posterior to the ear (n=12 for each treatment group and n=3 for the no injection control group). For each treated group, 260 μg of DEX (either free-form or conjugated to the polymer) was used to provide a […] dosage similar to the literature value. Thus, the PPA NPs injection contained 250 μM polymer with 50% (125 μM) Cy 5.5 labeling, for each 200 μL injection.

[3] = molecular target: thermolysin (Bacillus thermoproteolyticus, UniProt P00800); conditions: 1 μM thermolysin:100 μM polymer, 24 hours incubation at 37° C.
Sequence of thermolysin (P00800 233-548, species assumed): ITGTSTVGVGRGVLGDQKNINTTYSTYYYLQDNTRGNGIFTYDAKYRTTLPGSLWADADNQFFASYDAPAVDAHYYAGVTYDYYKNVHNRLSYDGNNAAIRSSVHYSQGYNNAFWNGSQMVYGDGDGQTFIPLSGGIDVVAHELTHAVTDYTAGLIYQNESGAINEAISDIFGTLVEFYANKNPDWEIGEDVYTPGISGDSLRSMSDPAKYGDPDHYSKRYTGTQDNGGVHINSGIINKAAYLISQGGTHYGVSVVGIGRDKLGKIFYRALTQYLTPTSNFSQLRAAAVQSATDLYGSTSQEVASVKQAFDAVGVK
Description: Transmission electron microscopy (TEM): Nanoparticles were characterized using a Hitachi HD-2300 STEM. Grids were prepared using a 1% uranyl acetate solution.
The nanoparticle cleavage experiment was performed similarly as described in Materials and Methods section, using a ratio of 1 μM thermolysin:100 μM polymer for 24 hours incubation at 37° C.

[4] = tested on: diabetic rats following collagen membrane implantation; assay: Diabetic rats with implanted collagen membrane, histology of residual collagen membrane (HRP-Avidin); format: in vivo, Female Sprague Dawley rats
Description: as §1, §2, §3
Two weeks following injection, the rats were sacrificed with carbon dioxide overdose, and the skull together with the over lining periosteum and the membrane were harvested.
The harvested skull together with the over lining periosteum and the membrane were subjected to the following processing: tissues from 10 rats per group were fixed with paraformaldehyde, and processed for decalcified tissue histology, embedded in paraffin. […]

[5] = molecular target: MMP-9 (Homo sapiens, UniProt P14780); assay: MMP-9 cleavage assay of norbornene peptide monomers (HPLC); format: biochemical; conditions: 0.5 μM MMP-9: 500 μM NorMMP, 24 hours of incubation at 37° C.
Sequence of MMP-9 (P14780 94-707): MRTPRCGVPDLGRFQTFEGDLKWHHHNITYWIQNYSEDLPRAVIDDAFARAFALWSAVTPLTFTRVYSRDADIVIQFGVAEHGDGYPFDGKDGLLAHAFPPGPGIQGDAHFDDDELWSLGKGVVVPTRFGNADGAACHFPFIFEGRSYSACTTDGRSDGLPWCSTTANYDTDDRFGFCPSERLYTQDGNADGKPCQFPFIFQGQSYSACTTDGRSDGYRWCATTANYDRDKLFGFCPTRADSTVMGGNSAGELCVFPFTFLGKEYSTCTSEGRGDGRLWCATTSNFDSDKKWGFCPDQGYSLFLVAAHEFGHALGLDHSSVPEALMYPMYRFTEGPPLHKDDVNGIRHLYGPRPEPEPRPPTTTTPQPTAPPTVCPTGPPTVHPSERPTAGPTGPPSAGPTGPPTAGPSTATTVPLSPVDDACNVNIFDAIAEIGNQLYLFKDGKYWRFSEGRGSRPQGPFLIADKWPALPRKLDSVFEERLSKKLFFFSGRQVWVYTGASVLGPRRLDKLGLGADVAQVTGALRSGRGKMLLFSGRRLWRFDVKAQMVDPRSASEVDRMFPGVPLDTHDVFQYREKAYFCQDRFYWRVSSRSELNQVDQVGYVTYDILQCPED
Description: Stock solution of NorMMP peptide (510 μM) was prepared in DPBS buffer. To an Eppendorf tube, 1.5 μL MMP-9 stock (38.46 μM) and […] of NorMMP stock was added, giving a final concentration of 0.5 μM MMP-9: 500 μM NorMMP. The solution was incubated at 37° C. for 24 hours to promote peptide cleavage. To prepare the HPLC sample, 50 μL of the reaction mixture was added to 150 μL of DPBS buffer. 40 μL of resulting solution was injected into HPLC for analysis. For NorMMPL, NorMMPD and the cleavable sequence ([…]), a gradient of 20-60% Buffer B over 30 minutes was used. For the NorMMPR, a gradient of 20-40% Buffer B in 30 minutes was used.
Three test groups, including the norbornenes functionalized with random peptide (NorMMPR), D- and L-MMP peptide (NorMMPD and NorMMPL), and one control group with the cleaved peptide sequence […] were setup.

[6] = single dose, 260 μg of DEX, two weeks following injection

GGSGSGSGWGERDGS-NH2 (C-terminus assumed) [random peptide]
water solubility [1]: good water solubility

MMP peptide: peptide comprising PLGLAG sequence with all L-amino acids (SEQ ID NO: 1), MMP-cleavable (GPLGLAGGERDG-NH2)
net charge ([1]; pH=7): −1

NPD: micellar nanoparticles formed of DEX-containing D-MMP-containing PPA (PPAD) (NorAHA-G[dP][dL]G[dL][dA]GGERDG-NH2; not fully specified; also: grafted via NorAHA into ROMP polynorbornene block copolymer, micellar nanoparticle)
order of in-vivo fluorescence intensity [2]: NPL>NPD>NPR
nanoparticle morphology upon thermolysin treatment (TEM) [3]: maintained their nanoparticle morphology

NPL: micellar nanoparticles formed of DEX-containing L-MMP-containing PPA (PPAL) (NorAHA-GPLGLAGGERDG-NH2; not fully specified; also: micellar nanoparticle of NorDEX20-b-NorMMP5 polynorbornene block copolymer with DEX ester)
collagen membrane area, higher than the free dexamethasone group [4, 6]: about 20%
collagen membrane area, higher than the no treatment group [4, 6]: about 40%
remaining collagen membrane area compared to free-form dexamethasone-treated group [4, 6]: significantly larger
voids in the residual collagen membranes compared to free-form dexamethasone and no injection groups ([4]; staining and histology analysis): significantly less voids
order of in-vivo fluorescence intensity [2]: NPL>NPD>NPR
in-vivo fluorescence intensity compared to NPD and NPR controls ([2]; 7- and 14-days post injection (day 14 and day 21)): significantly higher
nanoparticle morphology upon thermolysin treatment (TEM) [3]: cleavage induced aggregation

NPR: micellar nanoparticles formed of DEX-containing random-peptide PPA (PPAR) (GGSGSGSGWGERDGS)
order of in-vivo fluorescence intensity [2]: NPL>NPD>NPR
nanoparticle morphology upon thermolysin treatment (TEM) [3]: maintained their nanoparticle morphology

NorMMPD: norbornene monomer with D-MMP peptide (SEQ ID NO: 2), D-amino acids in the PLGLAG portion (NorAHA-G[dP][dL]G[dL][dA]GGERDG-NH2; not fully specified)
cleavage by MMP-9 (HPLC traces) [5]: remained intact

NorMMPL: norbornene monomer functionalized with L-MMP peptide (SEQ ID NO: 1), MMP-cleavable (NorAHA-GPLGLAGGERDG-NH2; SMILES CC(C)C[C@H](NC(=O)CNC(=O)[C@H](CC(C)C)NC(=O)[C@@H]1CCCN1C(=O)CNC(=O)CCCCCN1C(=O)[C@@H]2[C@H](C1=O)[C@H]1C=C[C@@H]2C1)C(=O)N[C@@H](C)C(=O)NCC(=O)NCC(=O)N[C@@H](CCC(=O)O)C(=O)N[C@@H](CCCNC(=N)N)C(=O)N[C@@H](CC(=O)O)C(=O)NCC(N)=O)
cleavage by MMP-9 (HPLC traces) [5]: completely cleaved

NorMMPR: norbornene monomer with R-MMP random peptide (SEQ ID NO: 17) (NorAHA-GGSGSGSGWGERDGS-NH2; not fully specified)
cleavage by MMP-9 (HPLC traces) [5]: remained intact
